Values of other authors in paper PMC4115291 (Nature communications, 2014).

Test system: mice

Substance: β-Diguetoxin-Dc1a
- effect in mice, injected intracerebroventricularly (in words) (1.0 mg/kg intracerebroventricularly): no effect
- effect in mice, injected intraperitoneally (in words) (4.1 mg/kg intraperitoneally): no effect
